# Test results reported in PMC8286830 (Biochemical Journal, 2021).
# Read-outs that look alike come from different tables or passages of the source.
# B1: N-terminal domain of TgCEN1 (N-TgCEN1, 1–94 aa) (domain or fragment, Toxoplasma gondii, UniProt A0A125YHX7 1-94, looked up)
# chain: MHSRKGASSLPRGRGAGKKTELTEEQRQEIKEAFDLFDTDGSGCIDAKELKVAMRALGFEPKKEEIRKMIADVDKDGTGSVDFQEFLSLMTVKM
# B2: C-terminal domain of TgCEN1 (C-TgCEN1, 95–169 aa) (domain or fragment)
# chain: not shown
# What was measured:
# [1] = target: T1, truncated variant of TgCEN1 lacking the first 21 residues (Δ21TgCEN1, 22–169) (Toxoplasma gondii, UniProt A0A125YHX7 22-169); assay: ITC
# T1 sequence (looked up): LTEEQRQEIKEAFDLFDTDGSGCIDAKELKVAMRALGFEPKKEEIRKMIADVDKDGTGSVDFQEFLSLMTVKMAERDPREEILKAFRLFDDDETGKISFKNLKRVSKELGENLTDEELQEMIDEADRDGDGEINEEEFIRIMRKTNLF
# [2] = target: B2; assay: ITC
# [3] = target: T1, truncated variant of TgCEN1 lacking the …; assay: ITC; remark: listed apart in the source
# [4] = target: T2, N-terminal domain of TgCEN1 lacking the first 21 residues (Δ21N-TgCEN1, 22–94 aa) (Toxoplasma gondii, UniProt A0A125YHX7 22-94); assay: ITC
# T2 sequence (looked up): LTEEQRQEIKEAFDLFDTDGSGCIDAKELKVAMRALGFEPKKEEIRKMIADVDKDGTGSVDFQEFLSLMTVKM
# [5] = target: B2; assay: ITC; remark: listed apart in the source
# [6] = target: the molecule itself; assay: dynamic light scattering
# [7] = target: the molecule itself; assay: dynamic light scattering; remark: listed apart in the source
binder,measurement,setting,value
"NWKLLAKGLLIRERLKR [P17-XPC peptide (17-residue peptide of the human xeroderma pigmentosum group C protein, N847-R863)]",Kd,[1],59.1 nM
same,dH,[1],-31.5 kcal/mol
same,stoichiometry N,[1],0.9
same,Kd,[2],50.1 nM
same,dH,[2],-28.4 kcal/mol
same,stoichiometry N,[2],0.8
same,"dH of site 1 (high-affinity site, two-site model)",[3],-23.8 kcal/mol
same,"dH of site 2 (low-affinity site, two-site model)",[3],-12.1 kcal/mol
same,Kd,[4],396 nM
same,dH,[4],-17.7 kcal/mol
same,stoichiometry N,[4],0.7
same,Kd,[5],6.7 nM
same,dH,[5],-22.9 kcal/mol
same,stoichiometry N,[5],0.8
B1,binding result,[6],binds
B2,binding result,[7],binds
